Data: the supplement of paper PMC9170038

Test system: MS2 coat protein
Assay: apparent KD of MS2 coat protein; designed switch direction (-1 OFF switch, 1 ON switch): -1; higher = weaker reporter binding
How it was run: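 An oligonucleotide input, 200 uM small-molecule ligand, or no input was present during titration of SNAP-549-labelled MS2 coat protein, which was doubled from 0.7 or 1.5 nM to 3 µM. Designed RNA switches had been transcribed on Illumina chips by stalled E. coli RNA polymerase. Apparent KD per design is the median over clusters of curves fitted to normalised cluster fluorescence.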

[1] = input ligand: microRNA oligo, concentration not stated
[2] = Eterna round: R95, input ligand: FMN 200 uM
[3] = Eterna round: R95, input ligand: microRNA oligo, concentration not stated
[4] = Eterna round: R95, input ligand: none

Sequence | apparent KD of MS2 coat protein (input ligand: FMN 200 uM) | apparent KD of MS2 coat protein [1] | apparent KD of MS2 coat protein (input ligand: none) | apparent KD of MS2 coat protein [2] | apparent KD of MS2 coat protein [3] | apparent KD of MS2 coat protein [4]
CCCUCAUGACGCACAUGAGGAUCACCCAUGUAUAAACCGUCAGAGGAUAUCCGCCGGUCACCGAAGGAGAAGGCUGACCUAAAG [Quinlaan] (Eterna round: R96, puzzle: Exclusion NG 3) | 21.2 nM | 11 nM | 18.2 nM |  |  | 
UAUAUAUAGUAAGGAUAUAUAUUUAUUUUAUAAAUAGAAGGUACAGACAUGAGGAUCACCCAUGUUAUAAUAUGGACAUGUGGA [JMF's Solution 1] (Eterna round: R96, puzzle: Exclusion NG 1) |  | 45.3 nM |  |  |  | 
CAUGUGUUAGGAUAUGCACAGAUCUCCGAAAGGAGAUCUGUGCAGAAGGAACAUGAGGAUCACCCAUGUUGAUG [Mod of Brourd 16 - Jieux - Exclusion 4] (Eterna round: R97, puzzle: Exclusion 4) | 136 nM |  | 37.3 nM |  |  | 
CUGGUCCGAGGAUAUAUUAUGUGAAACAUGAGGAUCACCCAUGUAAUAUGAUGGAAAUAAAUAGAAGGCGGACUAG [Mat - Exclusion 5 - JL mod - D32] (puzzle: Exclusion 5) |  |  |  | 26 nM | 34.5 nM | 43.5 nM
UGAUCUUUUGUUAGGAUAUGCUGUUUUUUUUUACAGCAGAAGGGACAUGAGGAUCACCCAUGUCUUGUCAUAAA [Magic-05] (puzzle: Brourd's mod of Exclusion 4) |  |  |  |  | 12.4 nM | 
GCUGGUCAAGGAUAUGCAUUCGUGCUUCGGCACGUAAGGUCACAUGAGGAUCACCCAUGUAGAAGGUGACCAGC [E2/6-C1] (Eterna round: R97, puzzle: Exclusion 2) | 31.6 nM |  | 20.9 nM |  |  | 
AUGCUCCGUGUAGGAUAUCGCCGUAUUACUCGGCGAGAAGGACAUGAGGAUCACCCAUGUAUGUUAUUAUCACGUGUGGCGCGC [Design 46] (Eterna round: R96, puzzle: Exclusion NG 1) | 35.2 nM | 15.4 nM | 18.6 nM |  |  | 
CUCUUGUAAGGAUAUCUGACAAGUGACGAAAGUCACAGUUCAGAGAAGGUACAUGAGGAUCACCCAUGUAGAAC [Exclusion 4 - Mod Brourd Ex 4-3: 41] (puzzle: Exclusion 4) |  |  |  |  | 60.6 nM | 
CUGAUGUGAGGAUAUCUAAAAGAAACUGGGCAAAUACCCAGAGAGAAGGCACAUGAGGAUCACCCAUGUAACGA [Anedin] (puzzle: Exclusion 4) |  |  |  |  | 20.9 nM | 
GCAGCAUAGUAUACUUACUGUUACAUGAGGAUCACCCAUGUACAGGAUAUGGUCUGGAUUACAGGCCAGAAGGGUACAAGCUGC [Eli exng3 - 024] (Eterna round: R96, puzzle: Exclusion NG 3) | 10.3 nM | 8.12 nM | 11.7 nM |  |  | 
UAGCAAUGAGAUGGGUUCCACAUGAGGAUCACCCAUGUCCAAGCUCAGAGCUCGUCUUAUUUGAGAUACUUCACUGU [Eternabot (L2) Solution 50] (Eterna round: R97, puzzle: Sensor, turn-off variant 1) | 41.1 nM |  | 43.4 nM |  |  | 
GUGCCGCGAGGAUAUACAGACGGGUCCAUAACGUGUCUCGGACUUGAGGAUCACCCAAGUAGAAGGCGUUUCAG [salish99_ex2_r4_623] (Eterna round: R97, puzzle: Exclusion 2) | 19.9 nM |  | 20.8 nM |  |  | 
CUUUCGUGAGGAUAUGUGGCUUCGAAAAUGAGAUCGAGGCUACAGAAGGCACAUGAGGAUCACCCAUGUUCCUC [salish99_ex4_r4_215] (Eterna round: R97, puzzle: Exclusion 4) | 400 nM |  | 35.6 nM |  |  | 
UUAGCUUCAGGAUAUACAGUGGGCUGGGAUCUAAAGAUCAAACAUGAGGAUCACCCAUGUAGAAGGGAACGGAA [Eternabot (L2) Solution 32] (Eterna round: R97, puzzle: Exclusion 2) | 380 nM |  | 145 nM |  |  | 
UUAUUGUGUGUAGGAUAUGCGUGUUAUUAUUAUGCAGAAGGACAUGAGGAUCACCCAUGUGUAUUGUUAUUAUAUAUUAUAUAU [Title] (Eterna round: R96, puzzle: Exclusion NG 1) | 48.2 nM | 21.2 nM | 27 nM |  |  | 
AUAAGCUUUGAGAUCCUUAACAUGAGGAUCACCCAUGUUCGUCUUAUGAUGGUCUGAUCCCUGAGGAUCGGACCGUU [JL-sv1-2.02 Brourd Mod] (puzzle: Sensor v3, turn-off variant 1) |  |  |  | 262 nM | 10.4 nM | 257 nM

Sequence | apparent KD of MS2 coat protein (input ligand: FMN 200 uM) | apparent KD of MS2 coat protein [1] | apparent KD of MS2 coat protein (input ligand: none) | apparent KD of MS2 coat protein [2] | apparent KD of MS2 coat protein [3] | apparent KD of MS2 coat protein [4]
CGGUGCUGAGGAUAUACAUGAGGAUCACCCAUGUGUGCCAGCUAGAAGACUGGCACUUGUAGAAGGCAGUACUG [Mat - Exclusion 3 - Mod of JL D90] (puzzle: Exclusion 3) |  |  |  |  | 10.3 nM | 
CACCGUUACUGAGGAUAUCUUACAUGAGGAUCACCCAUGUAAUAAAUGAGAAUUUCGGAUGUAUUAGAGAAGGCAGAAAUCGGC [Ostricism 61 - Jieux - Exclusion NG 2] (Eterna round: R96, puzzle: Exclusion NG 2) | 22.6 nM | 16.3 nM | 23.9 nM |  |  | 
GCUGGACAAGGAUAUACAUGAGGAUCACCCAUGUGAUCAGCAGUCCUCGGACUGCAAUGUAGAAGGUGUCCAGC [E3/1-C2] (Eterna round: R97, puzzle: Exclusion 3) | 38.9 nM |  | 198 nM |  |  | 
CCAAGCUUAUUCAUUAACCACAUGAGGAUCACCCAUGUAUAGGCAAUUAUGACUGGGCUCUGUGGUGCUCGUCUUCU [mod-malcom] (Eterna round: R97, puzzle: Sensor, turn-off variant 1) | 59.7 nM |  | 60.3 nM |  |  | 
UAAUACAAGUAAAGAUCCUACAUGAGGAUCACCCAUGUGCUCGUCUUGUAAAGUACUAUCACGAAAGUGAUAGUACA [Mat - Sensor v3 - turn-off var 1 - Eli Mod - D85] (puzzle: Sensor v3, turn-off variant 1) |  |  |  | 41 nM | 196 nM | 53.1 nM
GCACGAAGUGGAGGAUAUCUGGGCGAGGAGCGCAGAGAAGGCCACAUGAGGAUCACCCAUGUUUUCCACGGAUAGCAAACGUGC [exng1 ex2.1] (Eterna round: R96, puzzle: Exclusion NG 1) | 25.5 nM | 15.2 nM | 23 nM |  |  | 
GUCGAACAUGAGGAUCACCCAUGUGAGGAUAUGCGAAUUUCAUCAAAAGAUGAAAUUUGCAGAAGGCACACGAC [Omei Ex1 A15] (Eterna round: R97, puzzle: Exclusion 1) | 26.4 nM |  | 23.4 nM |  |  | 
AACCUGAGGCAAAGCUUUAGGUGUACAUGAGGAUCACCCAUGUAGGAUAUGGUAAGCAAAGCUUACCAGAAGGACAUAAUGAUA [Mat - Exclusion NG 3 - Mod of JL - D49] (Eterna round: R96, puzzle: Exclusion NG 3) | 86.5 nM | 37.6 nM | 59.4 nM |  |  | 
UCCUUACAUGAGGAUCACCCAUGUGAGGAUAUGAGGGUUGAUUUAAAUGGGUUGAUUUUCAGAAGGCACAUGAA [JR_Ex1_Sub062] (Eterna round: R97, puzzle: Exclusion 1) | 46.2 nM |  | 50.9 nM |  |  | 
UCAUACGGUGAGGAUAUCUCCACUAAAGUGUGUAGAGAAGGCGCUACAUGAGGAUCACCCAUGUUUAUGGGCAG [Ex-6 Malc#13] (Eterna round: R96, puzzle: Exclusion 6) |  | 236 nM |  |  |  | 
CCAGCGUAUGUGAGGAUAUGCUGGUCCUUGGAUCAGCAGAAGGCACAUGAGGAUCACCCAUGUGGAAACGUUGG [JL bmx4 3.41] (puzzle: Brourd's mod of Exclusion 4) |  |  |  |  | 16.4 nM | 
GAGUAGUAAGGAUAUAGUAGGAGGGAGAAGUGAGGAGAGAACUAGAAGGUACAUGAGGAUCACCCAUGUUGAGA [JR_Exclu4_Sub084] (puzzle: Exclusion 4) |  |  |  | 24.3 nM | 19.2 nM | 19.5 nM
AGUGUCUUAGGAUAUACAUGAGGAUCACCCAUGUUAACAUUCCUUCGCGGUAUCGCAUGUAGAAGGAGGAUAUG [Eternabot (L1) Solution 68] (Eterna round: R97, puzzle: Exclusion 3) | 33.1 nM |  | 26.8 nM |  |  | 
ACGUGCACUCAGGAUAUGCUACGCCUGCUCUCAGCAGAAGGGAGUACAUGAGGAUCACCCAUGUGACAUCUGAU [Eternabot (Original) Solution 13] (Eterna round: R97, puzzle: Exclusion 6) | 44.3 nM |  | 26 nM |  |  | 
CAAUUAAUUAAUUAAUAAUACAUGAGGAUCACCCAUGUAGAUCCUACAUACAAGCUAAGUAGCUCGUCUUAUAAUUA [Stov1/2-A3] (Eterna round: R97, puzzle: Sensor, turn-off variant 1) | 417 nM |  | 625 nM |  |  | 
